This assay concerns the target EGFR on HeLa cells (UniProt P00533 25-1210, limits assumed). Put plainly: cell-based or functional assay.

These results are taken from patent US20230295310A1 (ABCELLERA BIOLOGICS, published 2023).

Residue numbers refer to the chain shown, from its start.

B1: GOMP001_bsAb_019 (bispecific antibody, human IgG1, kappa, L234A L235A)
heavy 1: QVQLVQSGAEVKKPGASVKVSCKASGYTFTSHWMHWVRKAPGQGLEWIGEFNPSNGRTNYNEEFKSKATMTVDTSTNTAYMELSSLRSEDTAVYYCASRDYDYDGRYFDYWGQGTLVTVSSASTKGPSVFPLAPSSKSTSGGTAALGCLVADYFPEPVTVSWNSGALTSGVHTFPAVLQSSGLYSLSSVVTVPSSSLGTQTYICNVNHKPSNTKVDEKVEPKSCDKTHTCPPCPAPEAAGGPSVFLFPPKPKDTLMISRTPEVTCVVVDVSHEDPEVKFNWYVDGVEVHNAKTKPREEQYNSTYRVVSVLTVLHQDWLNGKEYKCKVSNKALPAPIEKTISKAKGQPREPQVYTLPPSREEMTDNQVSLTCLVKGFYPSDIAVEWESNGQPENNYKTTPPVLMSDGSFFLASKLTVDKSRWQQGNVFSCSVMHEALHNHYTQKSLSLSPG
light 1: RIQMTQSPSSLSASVGDRVTITCSASSSVTYMYWYQDKPGKAPKLLIYDTSNLASGVPSRFSGSGSGTDYTFTISSLQPEDIATYYCQQWSSHIFTFGQGTKVEIKRTVAAPSVFIFPPSDKQLKSGTARVVCLLNNFYPREAKVQWKVDNALQSGNSQESVTEQDSKDSTYSLSSTLTLSKADYEKHKVYACEVTHQGLSSPVTKSFNRGEC
heavy 2: EVQLVDSGGGLVQPGGSLRLSCSGSGFTFSSYWMSWVRYAPGKGLEWVANIKQDGSQKYYVDRVKGRFTISRDNVKNSLYLQMNSLRVEDTAVYYCARDESSSWYWYFDLWGRGTLVTVSSASTKGPSVFPLAPSSKSTSGGTAALGCLVKDYFPEPVTVSWNSGALTSGVHTFPAVLQSSGLYSLSSVVTVPSSSLGTQTYICNVNHKPSNTKVDKKVEPKSCDKTHTCPPCPAPEAAGGPSVFLFPPKPKDTLMISRTPEVTCVVVDVSHEDPEVKFNWYVDGVEVHNAKTKPREEQYNSTYRVVSVLTVLHQDWLNGKEYKCKVSNKALPAPIEKTISKAKGQPRRPRVYTLPPSREEMTKNQVSLVCLVKGFYPSDIAVEWESNGQPENNYKTTPPVLDSDGSFFLYSVLTVDKSRWQQGNVFSCSVMHEALHNHYTQKSLSLSPG
light 2: DIQMTQSPSTLSASVGDRVTLTCRASQNIVKWLAWYQRKPGDAPKLLIYKASSLESGVPSWFSGSGSGTEFTLTINSLQPDDFATYYCQQYYTYSRTFGQGTKVEIKRTVAAPSVFIFPPSDEQLKSGTASVVCLLNNFYPREAKVQWKVDNALQSGNSQESVTEQDSKDSTYSLSSTLTLSKADYEKHKVYACEVTHQGLSSPVTKSFNRGEC
Regarding B1, the Max killing % is 48.3%.

B2: GOMP001_bsAb_023 (bispecific antibody, human IgG1, kappa, L234A L235A)
heavy 1: B1 heavy 1
light 1: B1 light 1
heavy 2: QGQLVESGGGVVQPGRSLRLSCEASGFTFRSYGMHWVRYPPGKGLEWVAIIWYDGGKKYYGDRVKGRFTISRDNPKNTLYLQMNSLRPEDTAVYYCMAYDYSNGFDIWGRGTMVTVSSASTKGPSVFPLAPSSKSTSGGTAALGCLVKDYFPEPVTVSWNSGALTSGVHTFPAVLQSSGLYSLSSVVTVPSSSLGTQTYICNVNHKPSNTKVDKKVEPKSCDKTHTCPPCPAPEAAGGPSVFLFPPKPKDTLMISRTPEVTCVVVDVSHEDPEVKFNWYVDGVEVHNAKTKPREEQYNSTYRVVSVLTVLHQDWLNGKEYKCKVSNKALPAPIEKTISKAKGQPRRPRVYTLPPSREEMTKNQVSLVCLVKGFYPSDIAVEWESNGQPENNYKTTPPVLDSDGSFFLYSVLTVDKSRWQQGNVFSCSVMHEALHNHYTQKSLSLSPG
light 2: DIVMTQTPLSSPVTLGQPASISCRSSQSFVHSDGSTYLSWLQRRPGDPPRLLIYKISNRFSGVPDRFSGRGAGTDFTLKISRVEAEDVGIYYCMQNTQFPYTFGQGTKLEIKRTVAAPSVFIFPPSDEQLKSGTASVVCLLNNFYPREAKVQWKVDNALQSGNSQESVTEQDSKDSTYSLSSTLTLSKADYEKHKVYACEVTHQGLSSPVTKSFNRGEC
Regarding B2, the Max killing % amounted to 27.5%.

B3: GOMP001_bsAb_022 (bispecific antibody, human IgG1, kappa, L234A L235A)
heavy 1: QMLLVESGGGVVQPGRSLTLSCAASGFTFRSYGMHWVRKAPGRGLEWVAIIWYDGSTEYYADEVKGRFTISRANSKNMLYLQMNSLRAEDTAVYYCAAFDYTNSFDIWGQGTMVTVSSASTKGPSVFPLAPSSKSTSGGTAALGCLVADYFPEPVTVSWNSGALTSGVHTFPAVLQSSGLYSLSSVVTVPSSSLGTQTYICNVNHKPSNTKVDEKVEPKSCDKTHTCPPCPAPEAAGGPSVFLFPPKPKDTLMISRTPEVTCVVVDVSHEDPEVKFNWYVDGVEVHNAKTKPREEQYNSTYRVVSVLTVLHQDWLNGKEYKCKVSNKALPAPIEKTISKAKGQPREPQVYTLPPSREEMTDNQVSLTCLVKGFYPSDIAVEWESNGQPENNYKTTPPVLMSDGSFFLASKLTVDKSRWQQGNVFSCSVMHEALHNHYTQKSLSLSPG
light 1: RIVVTQTPLSSPVTLGQPASISCRSSQRFVHSDGNTYLSWLQDRPGQPPRLLIYKISNRISGVPDRFSGSGAGTDFKLKISRVEAEDVGIYYCMQATQFPYTFGQGTKLEIKRTVAAPSVFIFPPSDKQLKSGTARVVCLLNNFYPREAKVQWKVDNALQSGNSQESVTEQDSKDSTYSLSSTLTLSKADYEKHKVYACEVTHQGLSSPVTKSFNRGEC
heavy 2: QVQLVQSGAEVKKPGASVKVSCKASGYTFTSHWMHWVRYAPGQGLEWIGEFNPSNGRTNYNEKFKSKATMTVDTSTNTAYMELSSLRSEDTAVYYCASRDYDYDGRYFDYWGRGTLVTVSSASTKGPSVFPLAPSSKSTSGGTAALGCLVKDYFPEPVTVSWNSGALTSGVHTFPAVLQSSGLYSLSSVVTVPSSSLGTQTYICNVNHKPSNTKVDKKVEPKSCDKTHTCPPCPAPEAAGGPSVFLFPPKPKDTLMISRTPEVTCVVVDVSHEDPEVKFNWYVDGVEVHNAKTKPREEQYNSTYRVVSVLTVLHQDWLNGKEYKCKVSNKALPAPIEKTISKAKGQPRRPRVYTLPPSREEMTKNQVSLVCLVKGFYPSDIAVEWESNGQPENNYKTTPPVLDSDGSFFLYSVLTVDKSRWQQGNVFSCSVMHEALHNHYTQKSLSLSPG
light 2: B1 light 1 with R1D, D37R, K41D, K122E, R130S
As for B3, the Max killing % is 60.6% and the “X… HeLa EC50” value was found to be 0.478 nM.

B4: GOMP001_bsAb_020 (bispecific antibody, human IgG1, kappa, L234A L235A)
heavy 1: EVQLVDSGGGLVQPGGSLRLSCSGSGFTFSSYWMSWVRKAPGKGLEWVANIKQDGSQKYYVDEVKGRFTISRDNVKNSLYLQMNSLRVEDTAVYYCARDESSSWYWYFDLWGRGTLVTVSSASTKGPSVFPLAPSSKSTSGGTAALGCLVADYFPEPVTVSWNSGALTSGVHTFPAVLQSSGLYSLSSVVTVPSSSLGTQTYICNVNHKPSNTKVDEKVEPKSCDKTHTCPPCPAPEAAGGPSVFLFPPKPKDTLMISRTPEVTCVVVDVSHEDPEVKFNWYVDGVEVHNAKTKPREEQYNSTYRVVSVLTVLHQDWLNGKEYKCKVSNKALPAPIEKTISKAKGQPREPQVYTLPPSREEMTDNQVSLTCLVKGFYPSDIAVEWESNGQPENNYKTTPPVLMSDGSFFLASKLTVDKSRWQQGNVFSCSVMHEALHNHYTQKSLSLSPG
light 1: B1 light 2 with D1R, R38D, D42K, E123K, S131R
heavy 2: B3 heavy 2
light 2: B1 light 1 with R1D, D37R, K41D, K122E, R130S
Consider B4, for which the Max killing % was 79.6% and the “X… HeLa EC50” value was found to be 0.102 nM.

B5: GOMP001_bsAb_021 (bispecific antibody, human IgG1, kappa, L234A L235A)
heavy 1: B1 heavy 1
light 1: B1 light 1
heavy 2: QMLLVESGGGVVQPGRSLTLSCAASGFTFRSYGMHWVRYAPGRGLEWVAIIWYDGSTEYYADRVKGRFTISRANSKNMLYLQMNSLRAEDTAVYYCAAFDYTNSFDIWGRGTMVTVSSASTKGPSVFPLAPSSKSTSGGTAALGCLVKDYFPEPVTVSWNSGALTSGVHTFPAVLQSSGLYSLSSVVTVPSSSLGTQTYICNVNHKPSNTKVDKKVEPKSCDKTHTCPPCPAPEAAGGPSVFLFPPKPKDTLMISRTPEVTCVVVDVSHEDPEVKFNWYVDGVEVHNAKTKPREEQYNSTYRVVSVLTVLHQDWLNGKEYKCKVSNKALPAPIEKTISKAKGQPRRPRVYTLPPSREEMTKNQVSLVCLVKGFYPSDIAVEWESNGQPENNYKTTPPVLDSDGSFFLYSVLTVDKSRWQQGNVFSCSVMHEALHNHYTQKSLSLSPG
light 2: B3 light 1 with R1D, D43R, Q47D, K128E, R136S
Take B5: the Max killing % is 25.4%.
